# In the RNAGym collection of RNA variant scans (doi:10.7554/elife.80360):
# B1: Hairpin Ribozyme (parent)
# chain: GUCCUCUUUCACGUGCGCGUGAAAGAGAGAAGUGAACCAGAGAAACACACGUUGUGGUAUAUUACCUGGUA
# Variants of: B1
# Experiment: self-cleavage, relative activity (ratio to wild type); higher = more cleavage; co-transcriptional
row,Variant,self-cleavage
1,U53G A64C,0.0581
2,U53C G54A,0.418
3,C50G U63C,0.114
4,G51C G57A,0.147
5,G51C G57U,0.204
6,G51C U58C,0.905
7,G51C U58G,0.433
8,G51U U55G,0.222
9,U52G U70G,0.933
10,G51C A61G,0.138
11,G51C A61U,0.196
12,G51A U63A,0.175
13,G51A U63C,0.109
14,G51U A71C,1.46
15,U53C G57A,0.326
16,U53C G57C,0.244
17,C50U G68A,0.194
18,G51C A71U,0.722
19,U53C U60C,1.5
20,U53A G69C,0.19
21,U53A G69U,0.26
22,G51A G57A,0.142
23,G51A G57C,0.158
24,U53A A64G,0.696

row,Variant,self-cleavage
1,U53A A64C,0.122
2,G51U A61U,0.25
3,G51U A61G,0.112
4,U53C U67A,0.28
5,U53C U67C,0.279
6,U53C U67G,0.462
7,G51U U62G,0.129
8,U52C C66A,0.279
9,U52C U70A,1.22
10,C50U U60G,0.205
11,C50U U60C,0.729
12,G51C U63C,0.1
13,G51C C65A,0.857
14,G51C C65U,0.296
15,U53C G69C,0.43
16,U53C G69A,0.607
17,U53C A71U,0.82
18,G51U G54C,0.135
19,U52G U62A,0.187
20,G51U G56C,0.201
21,C50U U70G,0.178
22,C50U U70C,0.34
23,C50U G56C,0.19
24,U52A U62A,0.24

row,Variant,self-cleavage
1,C50G U70G,0.314
2,U52G A59U,0.177
3,U52G U58G,0.498
4,U52G U67C,0.203
5,U52G A64G,0.301
6,U52G A64C,0.0463
7,U52G A71U,0.572
8,U52C U55G,0.301
9,U52G C66A,0.189
10,C50U U67C,0.157
11,G51U G68U,0.318
12,G51C G54U,0.404
13,G51C G54C,0.215
14,U53G A61U,0.186
15,G51A U60G,0.672
16,G51A U60A,1.18
17,G51A U60C,0.944
18,U53C U58A,0.709
19,G51U G69C,0.519
20,G51C G69U,0.224
21,G51C G69A,0.336
22,U53C A61C,0.142
23,U53C C66A,0.249
24,U53C C66U,0.69

row,Variant,self-cleavage
1,U53A G56C,0.208
2,U53A G56A,0.0996
3,U53C C65G,0.236
4,U53C C65A,1.06
5,U52A A71G,1.12
6,U52A A71U,0.915
7,U52C U63A,0.206
8,U52C U63C,0.226
9,G51A U67G,0.628
10,U52G C65G,0.266
11,U52G U55A,0.135
12,U52G U55G,0.398
13,U52G U55C,0.193
14,C50U U58C,0.232
15,C50U U58A,0.194
16,G51A A71C,1.49
17,U53A C66A,0.205
18,U53A U70G,0.987
19,U53A U70A,0.987
20,U53A U70C,0.951
21,U53A U55C,0.256
22,U53A U55G,0.389
23,C50U U62C,0.0808
24,C50U U62G,0.158

row,Variant,self-cleavage
1,U52A C65A,1.06
2,C50U,0.396
3,G51C A64U,0.0968
4,G51C U67C,0.182
5,G51C U67G,0.164
6,U53A A71U,0.706
7,G51C U55A,0.19
8,G51A A61U,0.192
9,G51A A61G,0.269
10,G51U C66G,0.2
11,G51U U63C,0.136
12,G51U U60A,1.11
13,U52A A61U,0.094
14,U52A A61G,0.22
15,U53A U60G,0.684
16,G51A G56C,0.148
17,U52C G54C,0.0624
18,U52C G54U,0.327
19,U53C U62C,0.347
20,G51U A59U,0.0798
21,G51U A59G,0.138
22,G51C G68U,0.227
23,G51C U52G,0.469
24,G51C U52A,0.761

row,Variant,self-cleavage
1,G51C A59C,0.14
2,G51A C66G,0.611
3,U52C U62C,0.248
4,U52A U53C,1.32
5,G51A A59U,0.178
6,G51A A59G,0.25
7,G51A A64C,0.173
8,U53A U58G,0.603
9,U52G G56C,0.0868
10,U52A U63G,0.121
11,U52C G69A,0.416
12,U52C U58C,0.755
13,U52G G69U,0.27
14,G51A U55G,0.407
15,G51A U55A,0.34
16,G51A U55C,0.405
17,C50U U55G,0.368
18,U52G A61U,0.0725
19,U52G A61G,0.163
20,U53C G56U,0.196
21,U53A U67C,0.279
22,G51A G68U,0.474
23,G51A G68C,0.31
24,G51A G68A,0.555

row,Variant,self-cleavage
1,U52A G69C,0.268
2,U52A U67A,0.307
3,U52A U67C,0.239
4,G51U A64C,0.188
5,U53A A61C,0.178
6,U53A A61G,0.0972
7,U52A A59G,0.159
8,U52A A59C,0.245
9,U52G U63C,0.0944
10,G51U G57A,0.122
11,G51C U62C,0.239
12,G51A U58A,0.674
13,C50U A61G,0.199
14,G51U U67C,0.299
15,C50U C66U,0.159
16,C50U C65U,0.199
17,C50U G54C,0.534
18,U53G A59U,0.119
19,U52C U67A,0.178
20,G51A G69U,0.439
21,G51A G69A,0.596
22,U52A C66A,0.398
23,G51C G56A,0.197
